The target of assay [1] is T1, recombinant human VEGF165 (human, UniProt P15692 27-191). The experiment in a line: cell-based or functional assay.
In assay [2] the target is T1, recombinant human VEGF165. The experiment in a line: cell-based or functional assay. The source holds these as a separate data set.
Target sequence in this assay (P15692 other isoform, or with tags, fused parts or gaps): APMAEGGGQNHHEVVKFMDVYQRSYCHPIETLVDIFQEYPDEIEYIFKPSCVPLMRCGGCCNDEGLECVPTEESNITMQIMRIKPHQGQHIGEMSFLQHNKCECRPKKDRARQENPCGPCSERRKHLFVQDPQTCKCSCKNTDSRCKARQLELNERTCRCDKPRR
The target in assay [3] is T1, recombinant human VEGF165. The experiment in a line: cell-based or functional assay. The source holds these as a separate data set.
Assay [4] has as its target recombinant murine VEGF164 (mouse) (UniProt Q00731). The experiment in a line: Biacore SPR, VEGF immobilized, pH 5. Background: Surface plasmon resonance follows binding to a sensor surface in real time, without labels.
In assay [5] the target is recombinant rat VEGF164 (rat) (UniProt P16612). The experiment in a line: Biacore SPR, VEGF immobilized, pH 5.
The target in assay [6] is T1, recombinant human VEGF165. The experiment in a line: Biacore SPR, VEGF immobilized, pH 5.
Target sequence in this assay (P15692 other isoform, or with tags, fused parts or gaps): as above
A further assay addresses T2, recombinant human PLGF (human, UniProt P49763-2 19-149, limits assumed).
T2 construct: Negative control; also called PIGF
T2 sequence (looked up): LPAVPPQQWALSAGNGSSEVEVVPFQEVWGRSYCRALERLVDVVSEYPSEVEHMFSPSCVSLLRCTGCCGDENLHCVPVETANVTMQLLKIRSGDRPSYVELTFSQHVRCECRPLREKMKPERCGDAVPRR
The assay can be described thus: Biacore SPR, PlGF immobilized, pH 5. How it is done: (§1) In this example, the Biacore-binding ability of scFvs was tested and the binding affinity was measured using the exemplary surface plasmon resonance method with BIAcore™-T100. The VEGF proteins, tested for binding by these scFv candidates, in this example and later examples include purified Escherichia coli-expressed recombinant human VEGF₁₆₅ (PeproTech EC Ltd.), recombinant human VEGF₁₂₁ (PeproTech EC Ltd.), recombinant human VEGF₁₁₀ (ESBATech AG), recombinant murine VEGF₁₆₄ (PeproTech EC Ltd.), recombinant rat VEGF₁₆₄ (Biovision), recombinant rabbit VEGF₁₁₀ (ESBATech AG), and recombinant human PLGF (PeproTech EC Ltd.). For the surface plasmon resonance experiment, carboxymethylated dextran biosensor chips (CM4, GE Healthcare) were activated with N-ethyl-N′-(3-dimethylaminopropyl) carbodiimide hydrochloride and N-hydroxysuccinimide according to the supplier's instructions. Each of the 6 different VEGF forms, as exemplified above, was coupled to 1 of the 4 different flow cells on a CM4 sensor chip using a standard amine-coupling procedure. […] The 4th flow cell of each chip was treated similarly except no proteins were immobilized prior to blocking, and the flow cell was used as in-line reference. […] Dissociation of the anti-VEGF scFv from the VEGF on the CM4 chip was allowed to proceed for 10 min at 25° C. Sensorgrams were generated for each anti-VEGF scFv sample after in-line reference cell correction followed by buffer sample subtraction. The apparent dissociation rate constant (kd), the apparent association rate constant (kₐ) and the apparent dissociation equilibrium constant (KD) were calculated using one-to-one Langmuir binding model with BIAcore T100 evaluation Software version 1.1.

Assay [7] deals with T1, recombinant human VEGF165. The experiment in a line: Biacore SPR, VEGF immobilized, pH 5. As for the experimental part:
as §1
Target sequence in this assay (P15692 other isoform, or with tags, fused parts or gaps): as the sequence (P15692 other isoform, or with tags, fused parts or gaps) above
The source holds these as a separate data set.

The target in assay [8] is T3, recombinant human VEGF121 (human, UniProt P15692 27-147).
T3 construct: mature; Isoform VEGF121 of the entry; also called hVEGF121
T3 sequence (looked up): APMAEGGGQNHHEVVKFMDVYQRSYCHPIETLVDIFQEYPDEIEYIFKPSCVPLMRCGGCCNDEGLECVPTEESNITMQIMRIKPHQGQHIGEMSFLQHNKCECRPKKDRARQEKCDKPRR
The assay can be described thus: Biacore SPR, VEGF immobilized, pH 5. As for the experimental part: as §1

In assay [9] the target is T4, recombinant human VEGF110 (human, UniProt P15692-4 27-136, limits assumed).
T4 construct: Made in house; also called hVEGF110
T4 sequence (looked up): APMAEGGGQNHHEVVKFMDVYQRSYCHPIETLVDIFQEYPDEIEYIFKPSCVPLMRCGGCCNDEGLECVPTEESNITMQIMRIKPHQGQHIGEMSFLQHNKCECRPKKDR
The experiment in a line: Biacore SPR, VEGF immobilized, pH 5. As for the experimental part:
as §1

Assay [10] has as its target T1, recombinant human VEGF165. The assay can be described thus: Biacore SPR, VEGF immobilized, pH 5. As for the experimental part:
as §1, with “1.1. […]” for “1.1.”
Target sequence in this assay (P15692 other isoform, or with tags, fused parts or gaps): as the sequence (P15692 other isoform, or with tags, fused parts or gaps) above
This is another data set of the same source.

Assay [11] deals with T1, recombinant human VEGF165. The assay can be described thus: Biacore SPR, VEGF immobilized, pH 7.4.
Target sequence in this assay (P15692 other isoform, or with tags, fused parts or gaps): as the sequence (P15692 other isoform, or with tags, fused parts or gaps) above
In assay [12] the target is T1, recombinant human VEGF165. The experiment in a line: VEGFR1/Fc competition ELISA on coated hVEGF165; ratio to Lucentis. How it is done: After 30-60 min of incubation at room temperature, the mixtures were transferred to the human VEGF₁₆₅ immobilized plate and incubated for 90 min. […] Optical density at 450 nm (OD 450 nm) was measured using a Sunrise microplate reader (Tecan). Data were analyzed as above, and EC₅₀ values were calculated from the dose-response curves of the scFvs.
Target sequence in this assay (P15692 other isoform, or with tags, fused parts or gaps): as the sequence (P15692 other isoform, or with tags, fused parts or gaps) above
A general note: An ELISA detects its analyte on a solid surface through an enzyme-linked reagent.

B1: 578-min (scFv)
scFv: EIVMTQSPSTLSASVGDRVIITCQASEIIHSWLAWYQQKPGKAPKLLIYLASTLASGVPSRFSGSGSGAEFTLTISSLQPDDFATYYCQNVYLASTNGANFGQGTKLTVLGGGGGSGGGGSGGGGSGGGGSEVQLVESGGGLVQPGGSLRLSCAASGFSLTDYYYMTWVRQAPGKGLEWVSFIDPDDDPYYATWAKGRFTISRDNSKNTLYLQMNSLRAEDTAVYYCAKGDHNSGWGLDIWGQGTLVTVSS
notes: also called EP578 min; Protein Nr; 820
By koff is commonly meant a measure of how fast the partners let go of each other. By kon is commonly meant the second-order rate constant of association. Turning to B1, in assay [1], the “EC50 in HUVEC assay (FIG. 8d)” value worked out at 1.53 nM. Besides, the “Rel. activity in HUVEC assay (EC50Luc[nM]/EC50test[nM])” value in [2] is 0.1. Besides, the “Rel. activity in HUVEC assay (EC50Luc[nM]/EC50test[nM]) hVEGF” value in [3] was 0.1. Moreover, the koff was 0.0151 s⁻¹ in assay [4]; 0.0182 s⁻¹ in assay [5]; 0.0103 s⁻¹ in assay [6]; 0.0103 s⁻¹ in [7]; 0.0088 s⁻¹ in [8]; 0.0104 s⁻¹ in assay [9]. Besides, the koff in assay [10] amounted to 0.0103 s⁻¹; in assay [11], 0.000202 s⁻¹. In addition, the kon in [4] was found to be 1.4e+06 M⁻¹ s⁻¹; in assay [5] it was 1.7e+06 M⁻¹ s⁻¹; in assay [6] it was 1.14e+06 M⁻¹ s⁻¹; in assay [7], 1.14e+06 M⁻¹ s⁻¹; in [8] it was 961000 M⁻¹ s⁻¹; in assay [9], 915000 M⁻¹ s⁻¹. For the same molecule, the kon in assay [10] is 1.14e+06 M⁻¹ s⁻¹; in assay [11] it was 1.11e+06 M⁻¹ s⁻¹. In the assay with recombinant human PLGF, the binding result was “no binding”. Further, the “Rel. activity hVEGR1 comp. ELISA (EC50Luc[nM]/EC50test[nM])” value (from here on “Rel. activity hVEGR1 comp. ELISA”) in assay [12] was found to be 4.8.

B2: 511-min (scFv)
scFv: EIVMTQSPSTLSASVGDRVIITCQASQSINIWCSWYQQKPGKAPKLLIYRASTLASGVPSRFSGSGSGAEFTLTISSLQPDDFATYYCQANYAYSAGYGAAFGQGTKLTVLGGGGGSGGGGSGGGGSGGGGSEVQLVESGGGLVQPGGSLRLSCAASGFSLNTYYMNWVRQAPGKGLEWVSIIAPDDTTYYASWAKSRFTISRDNSKNTLYLQMNSLRAEDTAVYYCAKSGDTTAWGADIWGQGTLVTVSS
notes: VL and VH tied by name; also called Protein Nr
For the molecule B2, in [2], the “Rel. activity in HUVEC assay (EC50Luc[nM]/EC50test[nM])” value stood at 0.0011. In assay [3], the “Rel. activity in HUVEC assay (EC50Luc[nM]/EC50test[nM]) hVEGF” value was found to be 0.0011. In addition, the koff in assay [4] was determined as 0.00103 s⁻¹; in assay [5], 0.00112 s⁻¹; in [6], 0.00128 s⁻¹; in assay [7] it was 0.00128 s⁻¹; in [8], 0.000963 s⁻¹; in [9] it was 0.000898 s⁻¹. Besides, the koff worked out at 0.00128 s⁻¹ in assay [10] and 0.000885 s⁻¹ in assay [11]. Besides, the kon in assay [4] was 625000 M⁻¹ s⁻¹; in assay [5], 550000 M⁻¹ s⁻¹; in [6] it was 505000 M⁻¹ s⁻¹; in assay [7] it was 505000 M⁻¹ s⁻¹; in assay [8], 778000 M⁻¹ s⁻¹; in assay [9] it was 619000 M⁻¹ s⁻¹. The kon was determined as 505000 M⁻¹ s⁻¹ in assay [10] and 675000 M⁻¹ s⁻¹ in assay [11]. Besides, in the assay with recombinant human PLGF, the binding result is on record as “no binding”. Besides, the “Rel. activity hVEGR1 comp. ELISA” value in assay [12] was 0.7.

B3: 511-max (scFv)
scFv: EIVMTQSPSTLSASVGDRVIITCQASQSINIWLSWYQQKPGKAPKLLIYRASTLASGVPSRFSGSGSGTEFTLTISSLQPDDFATYYCQANYAYSAGYGAAFGQGTKLTVLGGGGGSGGGGSGGGGSGGGGSEVQLVESGGGLVQPGGSLRLSCTVSGFSLNTYYMNWVRQAPGKGLEWVGIIAPDDTTYYASWAKSRSTISRDTSKNTVYLQMNSLRAEDTAVYYCARSGDTTAWGADIWGQGTLVTVSS
notes: also called ESBA802
With B3, the “Rel. activity in HUVEC assay (EC50Luc[nM]/EC50test[nM])” value in [2] is 0.0179. Also, the “Rel. activity in HUVEC assay (EC50Luc[nM]/EC50test[nM]) hVEGF” value in assay [3] was determined as 0.0179. For the same molecule, the off-rate constant (koff) amounted to 4.61e-05 s⁻¹ in [4]; 6.63e-05 s⁻¹ in assay [5]; 4.4e-05 s⁻¹ in [6]; 4.4e-05 s⁻¹ in assay [7]; 9.97e-05 s⁻¹ in assay [8]; 7.96e-05 s⁻¹ in assay [9]. Besides, the koff in [10] amounted to 4.4e-05 s⁻¹; in assay [11], 6.85e-05 s⁻¹. In addition, the kon stood at 753000 M⁻¹ s⁻¹ in assay [4]; 626000 M⁻¹ s⁻¹ in assay [5]; 659000 M⁻¹ s⁻¹ in assay [6]; 659000 M⁻¹ s⁻¹ in assay [7]; 467000 M⁻¹ s⁻¹ in [8]; 405000 M⁻¹ s⁻¹ in assay [9]. Moreover, the on-rate constant (kon) in assay [10] stood at 659000 M⁻¹ s⁻¹; in assay [11], 800000 M⁻¹ s⁻¹. Besides, the binding result with recombinant human PLGF is reported as “no binding”. The “Rel. activity hVEGR1 comp. ELISA” value in assay [12] came out at 8.

B4: 534-max (scFv)
scFv: EIVMTQSPSTLSASVGDRVIITCQASQSINIWLSWYQQKPGKAPKLLIYKESTLASGVPSRFSGSGSGTEFTLTISSLQPDDFATYYCQNNYDSGNNGFPFGQGTKLTVLGGGGGSGGGGSGGGGSGGGGSEVQLVESGGGLVQPGGSLRLSCTASGFSLSYYYMSWVRQAPGKGLEWVGIIGPGDYTDYASWAKGRFTISKDTSKNTVYLQMNSLRAEDTAVYYCARGDDNSGWGEDIWGQGTLVTVSS
notes: VL and VH tied by name; also called EP534max; Protein Nr; 793
For B4, the “EC50 in HUVEC assay (FIG. 8c)” value in assay [1] was 63.5 nM. For the same molecule, in [2], the “Rel. activity in HUVEC assay (EC50Luc[nM]/EC50test[nM])” value is 0.0014. Also, in assay [6], the koff is 0.0173 s⁻¹ and the kon turned out to be 1.88e+06 M⁻¹ s⁻¹. In assay [11], the koff came out at 0.00262 s⁻¹ and the kon amounted to 1.06e+06 M⁻¹ s⁻¹.
